Laboratory results published in patent US20140087995A1 (published 2014).
Numbered stars: 1 amine (or outer) side, 2 acyl side, 3 side chain; on linkers, the order of the positions; unused ones are H or OH. Bridge positions count the residues as written; N and C are the ends. Side chains are listed from the residue outwards. Ends that are not written are not given here. * marks the point of attachment. C20 diacid = O=C(O)CCCCCCCCCCCCCCCCCCC(=O)*; γGlu = O=C(O)[C@H](CCC(=O)[*:2])N[*:1]

T1: human amylin receptor (amylin 3(a) receptor: human calcitonin receptor co-expressed with RAMP-3) (human, UniProt P30988 25-474; O60896 24-148)
T1 construct: whole, on cells; functional assay (Assay IIa) used the whole cells; also called hAmylin-R; hAmylinR
T1 sequence (looked up) 1: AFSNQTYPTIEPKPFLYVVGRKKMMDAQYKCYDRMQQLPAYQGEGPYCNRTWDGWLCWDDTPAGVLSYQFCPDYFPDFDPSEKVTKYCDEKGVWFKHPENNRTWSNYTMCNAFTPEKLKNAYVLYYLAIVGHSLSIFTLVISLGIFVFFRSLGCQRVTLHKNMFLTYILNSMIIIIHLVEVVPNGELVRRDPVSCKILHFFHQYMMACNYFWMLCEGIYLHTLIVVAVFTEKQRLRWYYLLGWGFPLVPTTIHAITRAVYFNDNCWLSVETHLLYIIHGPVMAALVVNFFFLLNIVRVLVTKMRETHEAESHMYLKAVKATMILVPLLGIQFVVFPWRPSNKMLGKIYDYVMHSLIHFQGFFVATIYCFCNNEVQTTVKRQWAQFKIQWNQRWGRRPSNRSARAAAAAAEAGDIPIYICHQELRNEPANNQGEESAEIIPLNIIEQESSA
T1 sequence (looked up) 2: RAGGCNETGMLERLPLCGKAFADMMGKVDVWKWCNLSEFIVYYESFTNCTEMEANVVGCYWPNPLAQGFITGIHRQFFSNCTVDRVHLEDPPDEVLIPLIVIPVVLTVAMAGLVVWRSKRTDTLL

T2: human calcitonin receptor (human, UniProt P30988 25-474)
T2 sequence (looked up): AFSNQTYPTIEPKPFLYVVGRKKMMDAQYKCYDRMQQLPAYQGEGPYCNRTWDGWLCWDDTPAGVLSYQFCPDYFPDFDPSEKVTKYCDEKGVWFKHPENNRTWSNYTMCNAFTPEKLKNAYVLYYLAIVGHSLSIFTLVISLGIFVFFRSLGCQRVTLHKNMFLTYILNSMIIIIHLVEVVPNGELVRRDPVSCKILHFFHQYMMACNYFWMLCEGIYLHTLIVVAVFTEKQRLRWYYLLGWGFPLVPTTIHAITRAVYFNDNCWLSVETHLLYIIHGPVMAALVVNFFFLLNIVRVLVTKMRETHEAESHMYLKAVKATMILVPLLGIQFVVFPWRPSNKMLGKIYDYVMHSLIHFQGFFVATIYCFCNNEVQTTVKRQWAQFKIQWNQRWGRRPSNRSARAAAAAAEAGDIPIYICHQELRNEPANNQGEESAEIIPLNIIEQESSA


Experiments:
[1] = molecular target: T1, human amylin receptor (amylin 3(a) …); test: SPA competition binding, membranes of Amylin 3(a)/CRE-luc BHK cells, displacement of 125I-rat amylin (Assay V)
In short: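 Cell membranes were prepared by homogenisation in Na-HEPES/EDTA buffer, pH 7.4, and stored at −80° C. They were then coupled to SPA beads at 35 ng/μL final and exposed to compounds in assay buffer containing CaCl2, MgCl₂, OA and Tween20. After 120 min at 25° C, plates were counted and IC₅₀ derived.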

[2] = molecular target: T1, human amylin receptor (amylin 3(a) …); test: cell-based or functional assay
[3] = molecular target: T2, human calcitonin receptor; test: cell-based or functional assay

Binder | IC50 [1] | hAmylin-R funct. EC50 (pM), CRE-luciferase reporter in BHK amylin 3(a) receptor cells [2] | Ratio hCT/hAmylin funct. (hCTR EC50 against hAmylin-R EC50) [3] | hCTR funct. EC50 (pM), CRE-luciferase reporter in BHK calcitonin (a) receptor cells [3]
K([γGlu-γGlu-C20 diacid])CNTATCATQRLAEFLRHSSNNPGAILSSTNVGPETY-NH2 (disulfide 2-7 (inferred), Synthetic acylated analogue of human amylin) | 1.19 nM | 5170 pM | 17.3 | 89600 pM
K([γGlu-γGlu-C20 diacid])CNTATCATQRLAEFLRHSSPNFGAIPSSTNVGPETP-NH2 (disulfide 2-7 (inferred), Synthetic acylated analogue of human amylin) | 0.533 nM | 132 pM | 0.8 | 102 pM
K([γGlu-C20 diacid])CNTATCATQRLAEFLRHSSPNFGAIPSSTNVGSHTY-NH2 (disulfide 2-7 (inferred), Synthetic acylated analogue of human amylin) | 0.992 nM | 425 pM | 13.1 | 5580 pM
K([γGlu-γGlu-C20 diacid])CNTATCATQRLAEFLRHSSPNFGAIPSSTNVGPNTF-NH2 (disulfide 2-7 (inferred), Synthetic acylated analogue of human amylin) | 0.152 nM | 216 pM | 9.9 | 2140 pM
